Test results published in patent publication US20190315864A1 (SUZHOU ALPHAMAB, published 2019).

B1: CTLA4 heavy chain single domain antibody No. C16 (VHH)
VHH: QVQLQESGGGSVQAGGSLTLSCAASGYTGDLVAWFRQTPGKEREGVAAISRTGLTTYYADSVKGRFTISQDTAKNTGYLQMNSMKPEDTAMYYCVAGWHVGGTWYKTSSYDYWGQGTQVTVSS
notes: Camel VHH expressed in E. coli (PET32b), nickel-purified
B2: CTLA4 heavy chain single domain antibody No. J42 (VHH)
VHH: QVQLQESGGGSVQAGGSLRLSCAASGYTYSSYNSNCMGWFRQAPGKEREGVAAIDSDGSTSYADSVKGRFTISKDNAKNTLYLQMNSLKPEDTAMYYCAASPRTCEVFSLGGSWHLFGYWGQGTQVTVSS
notes: as for B1
B3: CTLA4 heavy chain single domain antibody No. J35 (VHH)
VHH: QVQLQESGGGSVQAGGSLRLSCAASGYTSGYYVMGWYRQAPGKLREFVSSIDSNGGTMYADSVKGRFTISQDNAKNTAHLQMNSLKPEDTAMYYCKRDSPGNFYWGQGTQVTVSS
notes: as for B1
B4: CTLA4 heavy chain single domain antibody No. 165 (VHH)
VHH: QVQLQESGGGSVQTGGSLRLSCVVSGHSYSRKCMGWFRQAPGKEREEVATFYTGDGRTYYADSVKGRFTISQDNAKNTLYLQMNSLKPEDTGMYFCAADRRVNCDLLQSTFYNYRGQGTQVTVSS
notes: as for B1
B5: CTLA4 heavy chain single domain antibody No. 138 (VHH)
VHH: QVQLQESGGGSVQAGGSLTLSCAASGYANSNTCMGWFRQAPGKERERVAAISGVGTGTYYADSVKGRFTISRDNGKNTLFLQMNSLKPEDTAMYYCAAAPEGRAWCSRDPSGYNYWGQGTQVTVSS
notes: as for B1
B6: CTLA4 heavy chain single domain antibody No. J69 (VHH)
VHH: QVQLQESGGGLVQPGGSLRLSCAASGFTLSSYSMTWLRQAPGKGLEWVSTINSGGSTSYADSVKGRFAISRDNAKNTLYLQLNSLEIEDTGMYYCQGGLTRGQGTQVTVSS
notes: as for B1
B7: CTLA4 heavy chain single domain antibody No. 116 (VHH)
VHH: QVQLQESGGGLVQPGGSLRLSCEASGFTFSSYTMTWLRQAPGKGLEWVSTINSGGSTSYADSVKGRFAISRDNAKNTLYLQLNSLEIEDTGMYYCQGGLTRGQGTQVTVSS
notes: as for B1
B8: CTLA4 heavy chain single domain antibody No. 119 (VHH)
VHH: QVQLQESGGGSVQAGGSLRLSCAASEYTYHTNCMGWFRQAPGKEREGLAVMNPSGGVTYFADSVKGRFTISRDNAKNTVYLQMNSLKPEDTAMYYCAAGRGRCSGYSGYYNEWGQGTQVTVSS
notes: as for B1
B9: CTLA4 heavy chain single domain antibody No. J39 (VHH)
VHH: QVQLQESGGGSVQAGGSLRLSCAPSRYSGALMGWFRQAPGKEREGVAVISRSGLTTYYADSVKGRFTISQDTAKNTIYLQMNSMKPEDTAMYYCVAAPEARAWSSRDPTGYNYWGQGTQVTVSS
notes: as for B1
B10: CTLA4 heavy chain single domain antibody No. C29 (VHH)
VHH: QVQLQESGGGSVQAGGSLRLSCAVSGYTYSGYCMGWFRQAPGKEREGVAAISRGDGSPGYADSVKGRFTISQDNAKNTLYLQMNSLKPEDTAMYYCAADVIPTETCSYGSWSGPNGYWGQGTQVTVSS
notes: as for B1
B11: CTLA4 heavy chain single domain antibody No. C22 (VHH)
VHH: QVQLQESGGGSVQAGGSLRLSCTVSQHTSRYYYMAWFRQAPGKEREGVASIWTGGGTPGYADSAKGRFTISTDNAKNTIYLQMNSLKPEDTAMYYCAADDRGGRWSLGTMAVGGYKYWGQGTQVTVSS
notes: as for B1
B12: CTLA4 heavy chain single domain antibody No. J78 (VHH)
VHH: QVQLQESGGGSVQAGGSLRLSCTVSQHTSRYYYMAWFRQAPGKEREGVASIWTGGGTPGYADSAKGRFTISADNAKNTIYLQMNSLKPEDTAMYYCAADDRGGRWSLGTMAVGGYKYWGQGTQVTVSS
notes: as for B1
B13: CTLA4 heavy chain single domain antibody No. J5 (VHH)
VHH: QVQLQESGGGSVQAGGSLRLSCAASGYTYSTYCMAWFRQVPEKERERVASIYTGGGTTYYADSVKGRFTISLDNAKNTLYLQMNSLKPEDTAMYYCAKSAARCDSSRDVNRLGYWGQGTQVTVSS
notes: as for B1
B14: CTLA4 heavy chain single domain antibody No. 128 (VHH)
VHH: QVQLQESGGGSVQAGGSLKLSCAASGYTDYTYNTSCMGWFRQTPGKERERVATVNKVGSTIYADSVKGRFTISKDNVKNTLYLQMNSLKPEDTAMYYCAARGSWSCSQFWGDFGYWGQGTQVTVSS
notes: as for B1
B15: CTLA4 heavy chain single domain antibody No. J17 (VHH)
VHH: QVQLQESGGGSVQAGGSLRLSCAASGFTLSSYTMTWLRQAPGKGLEWVSTINSGGSTSYADSVKGRFAISRDNAKNILYLQLNSLEIEDTGMYYCQGGLTQRGQGTQVTVSS
notes: as for B1
B16: CTLA4 heavy chain single domain antibody No. J29 (VHH)
VHH: QVQLQESGGGLVQPGGSLRLSCAASGFTISSYTMTWLHQAPGKGLEWVSTINSGGSTAYADSVKGRFAISRDNAKNTLYLQLNSLKIEDTGMYYCQGGLTQRGQGTQVTVSS
notes: as for B1
B17: CTLA4 heavy chain single domain antibody No. C2 (VHH)
VHH: QVQLQESGGGSVQPGGSLRLSCAVSGFTFSGYCMAWVRQAPGKGLEWVASIHRRDGSTDYADSVKGRFTISKDNSKNTLYLQMSSLKPEDTAVYYCAADPARLSCSGRVNSEYKYRGQGTQVTVSS
notes: as for B1
B18: CTLA4 heavy chain single domain antibody No. C38 (VHH)
VHH: QVQLQESGGGSVQAGGSLRLSCAASRYTASSNCMAWFRQAPGKEREGVATIYNGGGSTAYADSVKGRFTISQDNAKNTVYLQMNSLKPEDTAMYYCGAGSPRFCASATMTGGHHLFGYWGQGTQVTVSS
notes: as for B1
B19: CTLA4 heavy chain single domain antibody No. J37 (VHH)
VHH: QVQLQESGGGSVQAGGTLRLSCAVSGVTYSPHCMGWFRQAPGKEREGVAAIYNGGGSTAYADSVKGRFTISQDNAKNTVYLQMNSLKPEDTAMYYCGAGSPRFCASATMTGGHHLFGYWGQGTQVTVSS
notes: as for B1

Key:
CTLA4-Fc fusion protein [1] = target: T1, CTLA4-Fc fusion protein (human, biotinylated where used as CTLA4-Fc-Biotin (Examples 5.1-5.3)); assay: ELISA OD ratio, value equals OD(CTLA4)/OD(Fc)
T1 construct: expressed in HEK293 cells; also called human CTLA4-Fc protein; CTLA4-Fc antigen protein
Protocol: (§1) Plates were coated with CTLA4-Fc fusion protein overnight at 4° C. and 10 ng of the heavy chain single-domain antibody obtained in Example 2.1 (the control was a single domain antibody not binding to the CTLA4-Fc protein) was added to each well and allowed to react for 1 hour at room temperature. After washing, primary antibody anti-His tag antibody (purchased from Beijing Kangwei Century Biotechnology Co., Ltd.) was added and reacted for 1 hour at room temperature. After washing, a secondary goat anti-mouse horseradish peroxidase-labeled antibody (Yiqiao Shenzhou, Cat: SSA007200) was added and reacted for 1 hour at room temperature. After washing, chromogenic agent was added and the absorbance was read at 405 nm.
(§2) Plates were coated with Fc protein overnight at 4° C. and 10 ng of the heavy chain single domain antibody obtained in Example 2.1 was added to each well (control was a single domain antibody against other unrelated targets) and allowed to react for 1 hour at room temperature. After washing, an rabbit anti-human Fc antibody (purchased from Shanghai Pu Xin Biotechnology Co., Ltd.) was added and reacted for 1 hour at room temperature. After washing, goat anti-rabbit horseradish peroxidase labeled antibody (purchased from Shanghai Pu Xin Biotechnology Co., Ltd.) was added and reacted at room temperature for 1 hour. After washing, chromogenic agent was added and the absorbance was read at 405 nm.

CTLA4-Fc fusion protein [2] = target: T1, CTLA4-Fc fusion protein; assay: competitive ELISA: CD80-Fc-Biotin signal on coated CTLA4-Fc with 500 ng VHH/well; competitor CD80-Fc-Biotin
Protocol: SA-HRP (purchased from Sigma) was added and allowed to react for 1 hour at room temperature. After adding chromogenic solution, absorbance was read at 405 nm wavelength.

Fc protein = target: T2, Fc protein; assay: ELISA, Fc protein coated, 10 ng VHH/well
T2 construct: Counter-screen for the Fc part of CTLA4-Fc
Protocol: as §2

CTLA4-Fc fusion protein [3] = target: T1, CTLA4-Fc fusion protein; assay: ELISA, CTLA4-Fc coated, 10 ng VHH/well
Protocol: as §1

CTLA4-Fc fusion protein [4] = target: T1, CTLA4-Fc fusion protein; assay: ELISA OD ratio, value equals OD(CTLA4)/OD(blank)
Protocol: as §1

| Binder | ODa/OD blank (CTLA4-Fc fusion protein [1]) | OD (CTLA4-Fc fusion protein [2]) [OD405] | OD (against Fc) (Fc protein) [OD405] | OD (against CTLA4) (CTLA4-Fc fusion protein [3]) [OD405] | ODa/ODb (CTLA4-Fc fusion protein [4]) |
| --- | --- | --- | --- | --- | --- |
| B1 | 33.7 | 1.89 | 0.053 | 1.79 | 63.8 |
| B2 | 24.1 | 0.94 | 0.045 | 1.09 | 38.8 |
| B3 | 22.9 | 2.57 | 0.036 | 0.823 | 29.4 |
| B4 | 23.8 | 1.84 | 0.051 | 1.21 | 43.4 |
| B5 | 45 | 1.92 | 0.041 | 1.84 | 65.8 |
| B6 | 17.2 | 2.34 | 0.037 | 0.635 | 22.7 |
| B7 | 5.1 | 2.58 | 0.046 | 0.234 | 8.4 |
| B8 | 14.5 | 2.53 | 0.037 | 0.537 | 19.2 |
| B9 | 41.6 | 2.13 | 0.042 | 1.75 | 62.4 |
| B10 | 17.8 | 2.43 | 0.085 | 1.51 | 54 |
| B11 | 14.1 | 2.47 | 0.06 | 0.848 | 30.3 |
| B12 | 5.2 | 2.41 | 0.121 | 0.632 | 22.6 |
| B13 | 33.6 | 2.5 | 0.036 | 1.21 | 43.2 |
| B14 | 35.2 | 0.893 | 0.036 | 1.27 | 45.3 |
| B15 | 30.4 | 2.53 | 0.046 | 1.4 | 50 |
| B16 | 40 | 2.5 | 0.036 | 1.44 | 51.4 |
| B17 | 35.2 | 2.52 | 0.035 | 1.23 | 44 |
| B18 | 22.7 | 2.28 | 0.045 | 1.02 | 36.5 |
| B19 | 35.3 | 1.06 | 0.034 | 1.2 | 42.9 |
